According to patent US20180021429A1, “ANTICANCER AGENTS OR ANTIMETASTATIC AGENTS USING FSTL1 AND COMBINATION DRUG THEREOF” (PHARMA FOODS INTERNATIONAL CO., LTD., priority 2015, published 2018):
Changes are numbered by the printed parent chain. “Also recorded” adds a separate entry of the source.

B1: #5-2: chicken-mouse chimeric anti-FSTL1 antibody clone; variable regions SEQ ID NO: 763 (light), 765 (heavy) (antibody, V domains shown)
VH: AVTLDESGGGLQTPGGGLSLVCKGSGFTFSSFNMFWVRQAPGKGLEWVAGVGKDGGTGYGAAVDGRATISKDNGQSTLRLQLNNLRAEDTGTYYCAKAAGGCSYGWCGSYVGDIDAWGHGTEVIVSS
VL: ASTQPSSVSANPGEAVKITCSGGSGSYYGWYQQKSPGSAPVTVIYNNNQRPSDIPSRFSGSKSGSTATLTITGVQAEDEAVYFCGGYDSSTGHGGIFGAGTTLTVL
modifications: mouse constant regions
B2: #5-3: chicken-mouse chimeric anti-FSTL1 antibody clone; variable regions SEQ ID NO: 767 (light), 769 (heavy) (antibody, V domains shown)
VH: AVTLDESGGGLQTPGGALSLVCKGSGFSFSSFNMFWVRQAPGKGLEWVAGIGKDGVPKYGAAVDGRATISKDNGQSTMRLQLNNLRAEDTGTYFCAKAAGGCSYDWCGIYAGDIDTWGHGTEVIVSS
VL: ASTQPSSVSANPGETVKITCSGGSGYYYGWYQQKSPGSVPVTVIYNNNNRPSDIPSRFSGSKSGSTGTLTITGVRAEDEAVYYCGGYDNSGTGIFGAGTTLTVL
modifications: mouse constant regions
B3: #5-8: chicken-mouse chimeric anti-FSTL1 antibody clone; variable regions SEQ ID NO: 771 (light), 773 (heavy) (antibody, V domains shown)
VH: B2 VH with A17G, S28T, A61T, A111T
VL: B1 VL
modifications: mouse constant regions
B4: #8-4: chicken-mouse chimeric anti-FSTL1 antibody clone; variable regions SEQ ID NO: 795 (light), 797 (heavy) (antibody, V domains shown)
VH: B1 VH with F29L, G58A, K71R, N73S, L78V, Y94F, G105S, S109A, I114L
VL: B2 VL with T3S, V39A, N48D, R50K, R75Q, A76V, Y83F
modifications: mouse constant regions
B5: #6-55: chicken-mouse chimeric anti-FSTL1 antibody clone; variable regions SEQ ID NO: 783 (light), 785 (heavy) (antibody, V domains shown)
VH: AVTLDESGGGLQTPGGALSLVCKGSGFTFTSVTMQWVRQAPGKGLEWVASVCSGSSTYYAPAVKGRATISRDNGQSTVRLQLSNLRPEDTGTYYCAKIAGRARWSCTSAAYNIDAWGHGTEVIVSS
VL: ASTQPSSVSAIPGETVKITCSGGGNNYGWYQQRSPGSAPVTVIYYNDNRPSNIPSRFSGSTSGSTSTLTITGVQADDEAIYYCGSWDSNTDSGIFGAGTTLTVL
modifications: mouse constant regions

How the values were obtained:
[1] = system: human pancreatic cancer cell line Panc1; test: Inhibitory activity against activation of tumor cell by FSTL1, RANKL-/CCR2-positive cells (Examples 5, 7, 9-11); type: cell-based
Description: It is known that tumor cells activated by stimulation with FSTL1 highly express molecule groups promoting bone metastasis and increase metastatic invasive capacity (Cancer Research 73: 6185, 2013). Thus, […] cells/well of a human pancreatic cancer cell line Panc1 were suspended in 1 mL/well of D-MEM medium (GIBCO/Thermo Fisher Scientific Inc. Cat. No. C11885500BT) containing 10% fetal bovine serum, supplemented with 50 ng/mL (final concentration) of FSTL1 (R&D Systems, Inc.) and 10 μg/mL of the anti-FSTL1 antibody (#5-2, #5-8, #5-10, #5-43, #6-55, or #7-34) or its isotype mouse IgG (anti-DNP antibody) as a control antibody “Control”, and cultured under stimulation (6-well plate). 3 days thereafter, the number of cells was counted while the cells were stained with a PE-labeled anti-RANKL antibody (eBioscience Cat. No. 12-6619) and a PE-labeled anti-CCR2 antibody (R&D Systems, Inc. Cat. No. FAB151P) in order to examine the expression of markers indicating bone metastatic properties, and the contents of RANKL-positive cells and CCR2-positive cells were analyzed by flow cytometry using FACScan (Becton, Dickinson and Company) to calculate the numbers of cells per culture. […] Therefore, in Examples below, judgment was made with the number of cells as an index.
In the same way as in Example 5, a human pancreatic cancer cell line Panc1 was supplemented with 50 ng/mL (final concentration) of FSTL1 (R&D Systems, Inc.) and 10 μg/mL of the anti-FSTL1 antibody (the same clones as in Example 6) or a control antibody and cultured under stimulation.
3 days thereafter, the number of cells was counted while the cells were stained with a PE-labeled anti-RANKL antibody and a PE-labeled anti-CCR2 antibody, and the contents of RANKL-positive cells and CCR2-positive cells were analyzed by flow cytometry using FACScan (Becton, Dickinson and Company) to calculate the numbers of cells per culture (FIG. 5B).
(§1) In the same way as in Example 5, a human pancreatic cancer cell line Panc1 was supplemented with 20 ng/mL (final concentration) of FSTL1 and 10 μg/mL of the anti-FSTL1 antibody (#5-2, #5-8, or #6-55) or a control antibody and cultured under stimulation. 3 days thereafter, the number of cells was counted while the cells were stained with a PE-labeled anti-RANKL antibody and a PE-labeled anti-CCR2 antibody, and the contents of RANKL-positive cells and CCR2-positive cells were analyzed by flow cytometry using FACScan (Becton, Dickinson and Company) to calculate the numbers of cells per culture (FIG. 6B).
as §1, with “50” for “20”, “#5-3, #6-55, #7-34, #8-1, #8-4, #8-7,” for “#5-8,”, “#8-8)” for “#6-55)”, “culture.” for “culture (FIG. 6B).”
as §1, with “50” for “20”, “(#6-55)” for “(#5-2, #5-8, or #6-55)”, “culture.” for “culture (FIG. 6B).”
It is known that tumor cells activated by stimulation with FSTL1 highly express molecule groups promoting bone metastasis and increase metastatic invasive capacity (Cancer Research 73: 6185, 2013). […]

[2] = system: human pancreatic cancer cell line Panc1; test: Inhibition of activation of tumor cells by FSTL1, Panc1 (Examples 5, 7, 9, 10, 11); type: cell-based
Description: It is known that tumor cells activated by stimulation with FSTL1 highly express molecule groups promoting bone metastasis and increase metastatic invasive capacity (Cancer Research 73: 6185, 2013). Thus, 2×10^7 cells/well of a human pancreatic cancer cell line Panc1 were suspended in 1 mL/well of D-MEM medium (GIBCO/Thermo Fisher Scientific Inc. Cat. No. C11885500BT) containing 10% fetal bovine serum, supplemented with 50 ng/mL (final concentration) of FSTL1 (R&D Systems, Inc.) and 10 μg/mL of the anti-FSTL1 antibody (#5-2, #5-8, #5-10, #5-43, #6-55, or #7-34) or its isotype mouse IgG (anti-DNP antibody) as a control antibody “Control”, and cultured under stimulation (6-well plate). 3 days thereafter, the number of cells was counted while the cells were stained with a PE-labeled anti-RANKL antibody (eBioscience Cat. No. 12-6619) and a PE-labeled anti-CCR2 antibody (R&D Systems, Inc. Cat. No. FAB151P) in order to examine the expression of markers indicating bone metastatic properties, and the contents of RANKL-positive cells and CCR2-positive cells were analyzed by flow cytometry using FACScan (Becton, Dickinson and Company) to calculate the numbers of cells per culture. […] Therefore, in Examples below, judgment was made with the number of cells as an index.
as §1, with “supplemented with 50 ng/mL (final” for “supplemented with 20 ng/mL (final”, “of FSTL1 (R&D Systems, Inc.) and 10” for “of FSTL1 and 10”, “anti-FSTL1 antibody (the same clones as in Example 6) or a” for “anti-FSTL1 antibody (#5-2, #5-8, or #6-55) or a”, “culture (FIG. 99B).” for “culture (FIG. 6B).”
as §1, with “100B).” for “6B).”
as §1, with “50” for “20”, “#5-3, #6-55, #7-34, #8-1, #8-4, #8-7,” for “#5-8,”, “#8-8)” for “#6-55)”, “culture.” for “culture (FIG. 6B).”
as §1, with “50” for “20”, “(#6-55)” for “(#5-2, #5-8, or #6-55)”, “culture.” for “culture (FIG. 6B).”

[3] = Example 10, FIG. 6C/36C, FSTL1 50 ng/mL, antibody 10 μg/mL, 3 days
[4] = Example 10: 50 ng/mL FSTL1, 10 μg/mL antibody, 3 days
[5] = Example 7, FIG. 5B/35B, FSTL1 50 ng/mL, antibody 10 μg/mL, 3 days
[6] = Example 7: 50 ng/mL FSTL1, 10 μg/mL antibody, 3 days, FIG. 99B
[7] = Example 9, FIG. 6B/36B, FSTL1 20 ng/mL, antibody 10 μg/mL, 3 days
[8] = Example 9: 20 ng/mL FSTL1, 10 μg/mL antibody, 3 days, FIG. 100B

Row | Molecule | inhibitory activity against the expansion of RANKL-positive cells and CCR2-positive cells [1, 3] | inhibitory activity against the expansion of RANKL-positive cells and CCR2-positive cells [2, 4] | inhibitory activity against the expansion of RANKL-positive cells and CCR2-positive cells [1, 5] | inhibitory activity against the expansion of RANKL-positive cells and CCR2-positive cells [2, 6] | inhibitory activity against the expansion of RANKL-positive cells and CCR2-positive cells [1, 7] | inhibitory activity against the expansion of RANKL-positive cells and CCR2-positive cells [2, 8] | also measured
1 | B1 | high inhibitory activity; also recorded: higher inhibitory activity | high inhibitory activity |  |  |  |  | 
2 | B2 |  |  | higher inhibitory activity | higher inhibitory activity |  |  | 
3 | B3 |  |  | higher inhibitory activity | higher inhibitory activity | exhibited inhibitory activity against the expansion of RANKL-positive cells and CCR2-positive cells; also recorded: higher inhibitory activity | exhibited inhibitory activity | 
4 | B4 | high inhibitory activity; also recorded: higher inhibitory activity | high inhibitory activity |  |  |  |  | 
5 | B5 | high inhibitory activity; also recorded: higher inhibitory activity |  |  |  | exhibited inhibitory activity against the expansion of RANKL-positive cells and CCR2-positive cells; also recorded: higher inhibitory activity | exhibited inhibitory activity | dose dependence of the antibody ([1]; Example 11, FIG. 6D/36D, 5, 10, 20 μg/mL): the dose dependence of antibody was not confirmed; also recorded: the dose dependence of the antibody was not confirmed; inhibitory activity against the expansion of RANKL-positive cells and CCR2-positive cells ([1]; Example 11, FIG. 6D/36D, FSTL1 50 ng/mL, at all tested doses 5, 10 and 20 μg/mL): ~100%; inhibition of cell induction of RANKL-positive cells and CCR2-positive cells ([1]; Example 11, FIG. 6D/36D, dose dependence test): exhibited inhibitory activity; also recorded: strongly inhibited the cell induction of both RANKL-positive cells and CCR2-positive cells at the same time; inhibitory activity against the expansion of RANKL-positive cells and CCR2-positive cells ([2]; Example 11: 50 ng/mL FSTL1, at all tested doses (5, 10 and 20 μg/mL), no dose dependence, FIG. 100D): ~100%
